According to paper PMC7615647, “Visualization of direct and diffusion-assisted RAD51 nucleation by full-length human BRCA2 protein” (Molecular cell, 2023):

B1: RAD51 C319S labelled with Alexa Fluor 647 C2 maleimide (natural protein, human, UniProt Q06609 1-339, looked up)
chain: MAMQMQLEANADTSVEEESFGPQPISRLEQCGINANDVKKLEEAGFHTVEAVAYAPKKELINIKGISEAKADKILAEAAKLVPMGFTTATEFHQRRSEIIQITTGSKELDKLLQGGIETGSITEMFGEFRTGKTQICHTLAVTCQLPIDRGGGEGKAMYIDTEGTFRPERLLAVAERYGLSGSDVLDNVAYARAFNTDHQTQLLYQASAMMVESRYALLIVDSATALYRTDYSGRGELSARQMHLARFLRMLLRLADEFGVAVVITNQVVAQVDGAAMFAADPKKPIGGNIIAHASTTRLYLRKGRGETRICKIYDSPSLPEAEAMFAINADGVGDAKD
modifications: Alexa Fluor 647 C2 maleimide (labelled residue not stated; protein to dye ratio 0.9-1.0)
notes: RAD51 recombinase, human, C319S variant; also called RAD51(A647); RAD-51(A647); source: E. coli BLR(DE3)pLysS (pET11c-RAD51 C319S), purified (ammonium sulphate, Q Sepharose, Heparin, Mono Q), then labelled

How the values were obtained:
[1] = target: BRCA2-eGFP;RAD51(A647) (Homo sapiens;Homo sapiens) (UniProt P51587); assay: single-molecule optical tweezers/confocal; conditions: EMSA: 4 nM Cy5-DNA, 20 mM HEPES pH 7.5, 1 mM MgCl2, 1 mM TCEP, 100 mM KCl, 24 C, 5 min, single-molecule (Fig 1): 100 mM NaCl, 2 mM MgCl2, 1 mM CaCl2, 2 mM ATP …
[2] = tested on: RAD51(A647) (Homo sapiens); assay: single-molecule optical tweezers/confocal; conditions: biotinylated hairpin end caps, EMSA: 4 nM Cy5-DNA, 20 mM HEPES pH 7.5, 1 mM MgCl2, 1 mM TCEP, 100 mM KCl, 24 C, 5 min, single-molecule (Fig 1): 100 mM NaCl, 2 mM MgCl2, 1 mM CaCl2, 2 mM ATP …
[3] = target: T1, BRCA2-N (residues 1-2142)-eGFP (human, UniProt P51587 1-2142); assay: single-molecule confocal fluorescence imaging with dual optical trapping (C-trap); BRCA2-eGFP (full length or truncation) and 20 nM RAD51(A647) moving together on lambda dsDNA held at 10 pN; 50 mM Tris-HCl pH 7.5, 50 mM NaCl or as indicated (25-150 mM), 2 mM MgCl2, 2 mM ATP, 0.2 mg/ml BSA; conditions: both partners purified
T1 construct: BRCA2, human, residues 1-2142 (N-DBD and BRC repeats 1-8; lacks C-DBD, TR2 and exC-DBR); also called N-DBD-BRC1-8 truncated protein; source: High Five insect cells, baculovirus (pFBDM-BRCA2-N, MultiBac), purified (StrepTrap, Heparin); not shown: eGFP, C-terminal, kept

[4] = target: T2, BRCA2-C2 (residues 966-3418)-eGFP (human, UniProt P51587 966-3418); assay: as above; conditions: both partners purified
T2 construct: BRCA2, human, residues 966-3418 (BRC repeats 1-8, C-DBD, TR2, full exC-DBR; lacks N-DBD); source: High Five insect cells, baculovirus (pFBDM-BRCA2-C2, MultiBac), purified (StrepTrap, Heparin); not shown: eGFP, C-terminal, kept

[5] = target: T3, full-length human BRCA2-eGFP (human, UniProt P51587 1-3418); assay: single-molecule confocal fluorescence imaging with dual optical trapping (C-trap); 5 nM BRCA2-eGFP and 25 nM RAD51(A647) together in solution; order of their arrival on gapped lambda DNA held between beads; 50 mM Tris-HCl pH 7.5, 100 mM NaCl, 2 mM MgCl2, 1 mM CaCl2, 2 mM ATP, 0.2 mg/ml BSA; with or without 1.25 nM RPA; conditions: both partners purified
T3 construct: breast cancer susceptibility protein 2 (BRCA2), human, full length, 3,418 amino acids; Sf9 codon-optimised gene; Order on the chain: BRCA2, (alanine)8 linker, monomeric eGFP A207K (so in the source), Flag3; Eluted from FLAG resin with Flag3 peptide; no tag cleavage is described; also called BRCA2 fl; fl BRCA2; source: Sf9 insect cells, baculovirus (pFB-BRCA2-eGFP), purified (FLAG M2 agarose, SP …)

BRCA2-eGFP = BRCA2-eGFP (Homo sapiens, UniProt P51587 1-3418); assay: EMSA; retains high ssDNA affinity; EMSA: 4 nM Cy5-DNA, 20 mM HEPES pH 7.5, 1 mM MgCl2, 1 mM TCEP, 100 mM KCl, 24 C, 5 min; single-molecule (Fig 1): 100 mM NaCl, 2 mM MgCl2, 1 mM CaCl2, 2 mM ATP; conditions: protein: recombinant; tags: C-terminal Ala8 linker, eGFP(A207K), Flag3; label: 5'-Cy5 on strand 1; 42 bp duplex, 3' overhang on strand 1
[6] = target: B1; assay: single-molecule confocal fluorescence imaging with dual optical trapping (C-trap); BRCA2-eGFP (full length or truncation) and 20 nM RAD51(A647) moving together on lambda dsDNA held at 10 pN; 50 mM Tris-HCl pH 7.5, 50 mM NaCl or as indicated (25-150 mM), 2 mM MgCl2, 2 mM ATP, 0.2 mg/ml BSA; conditions: both partners purified

Chain of BRCA2-eGFP;RAD51(A647) (Homo sapiens;Homo sapiens) (P51587 whole entry, looked up): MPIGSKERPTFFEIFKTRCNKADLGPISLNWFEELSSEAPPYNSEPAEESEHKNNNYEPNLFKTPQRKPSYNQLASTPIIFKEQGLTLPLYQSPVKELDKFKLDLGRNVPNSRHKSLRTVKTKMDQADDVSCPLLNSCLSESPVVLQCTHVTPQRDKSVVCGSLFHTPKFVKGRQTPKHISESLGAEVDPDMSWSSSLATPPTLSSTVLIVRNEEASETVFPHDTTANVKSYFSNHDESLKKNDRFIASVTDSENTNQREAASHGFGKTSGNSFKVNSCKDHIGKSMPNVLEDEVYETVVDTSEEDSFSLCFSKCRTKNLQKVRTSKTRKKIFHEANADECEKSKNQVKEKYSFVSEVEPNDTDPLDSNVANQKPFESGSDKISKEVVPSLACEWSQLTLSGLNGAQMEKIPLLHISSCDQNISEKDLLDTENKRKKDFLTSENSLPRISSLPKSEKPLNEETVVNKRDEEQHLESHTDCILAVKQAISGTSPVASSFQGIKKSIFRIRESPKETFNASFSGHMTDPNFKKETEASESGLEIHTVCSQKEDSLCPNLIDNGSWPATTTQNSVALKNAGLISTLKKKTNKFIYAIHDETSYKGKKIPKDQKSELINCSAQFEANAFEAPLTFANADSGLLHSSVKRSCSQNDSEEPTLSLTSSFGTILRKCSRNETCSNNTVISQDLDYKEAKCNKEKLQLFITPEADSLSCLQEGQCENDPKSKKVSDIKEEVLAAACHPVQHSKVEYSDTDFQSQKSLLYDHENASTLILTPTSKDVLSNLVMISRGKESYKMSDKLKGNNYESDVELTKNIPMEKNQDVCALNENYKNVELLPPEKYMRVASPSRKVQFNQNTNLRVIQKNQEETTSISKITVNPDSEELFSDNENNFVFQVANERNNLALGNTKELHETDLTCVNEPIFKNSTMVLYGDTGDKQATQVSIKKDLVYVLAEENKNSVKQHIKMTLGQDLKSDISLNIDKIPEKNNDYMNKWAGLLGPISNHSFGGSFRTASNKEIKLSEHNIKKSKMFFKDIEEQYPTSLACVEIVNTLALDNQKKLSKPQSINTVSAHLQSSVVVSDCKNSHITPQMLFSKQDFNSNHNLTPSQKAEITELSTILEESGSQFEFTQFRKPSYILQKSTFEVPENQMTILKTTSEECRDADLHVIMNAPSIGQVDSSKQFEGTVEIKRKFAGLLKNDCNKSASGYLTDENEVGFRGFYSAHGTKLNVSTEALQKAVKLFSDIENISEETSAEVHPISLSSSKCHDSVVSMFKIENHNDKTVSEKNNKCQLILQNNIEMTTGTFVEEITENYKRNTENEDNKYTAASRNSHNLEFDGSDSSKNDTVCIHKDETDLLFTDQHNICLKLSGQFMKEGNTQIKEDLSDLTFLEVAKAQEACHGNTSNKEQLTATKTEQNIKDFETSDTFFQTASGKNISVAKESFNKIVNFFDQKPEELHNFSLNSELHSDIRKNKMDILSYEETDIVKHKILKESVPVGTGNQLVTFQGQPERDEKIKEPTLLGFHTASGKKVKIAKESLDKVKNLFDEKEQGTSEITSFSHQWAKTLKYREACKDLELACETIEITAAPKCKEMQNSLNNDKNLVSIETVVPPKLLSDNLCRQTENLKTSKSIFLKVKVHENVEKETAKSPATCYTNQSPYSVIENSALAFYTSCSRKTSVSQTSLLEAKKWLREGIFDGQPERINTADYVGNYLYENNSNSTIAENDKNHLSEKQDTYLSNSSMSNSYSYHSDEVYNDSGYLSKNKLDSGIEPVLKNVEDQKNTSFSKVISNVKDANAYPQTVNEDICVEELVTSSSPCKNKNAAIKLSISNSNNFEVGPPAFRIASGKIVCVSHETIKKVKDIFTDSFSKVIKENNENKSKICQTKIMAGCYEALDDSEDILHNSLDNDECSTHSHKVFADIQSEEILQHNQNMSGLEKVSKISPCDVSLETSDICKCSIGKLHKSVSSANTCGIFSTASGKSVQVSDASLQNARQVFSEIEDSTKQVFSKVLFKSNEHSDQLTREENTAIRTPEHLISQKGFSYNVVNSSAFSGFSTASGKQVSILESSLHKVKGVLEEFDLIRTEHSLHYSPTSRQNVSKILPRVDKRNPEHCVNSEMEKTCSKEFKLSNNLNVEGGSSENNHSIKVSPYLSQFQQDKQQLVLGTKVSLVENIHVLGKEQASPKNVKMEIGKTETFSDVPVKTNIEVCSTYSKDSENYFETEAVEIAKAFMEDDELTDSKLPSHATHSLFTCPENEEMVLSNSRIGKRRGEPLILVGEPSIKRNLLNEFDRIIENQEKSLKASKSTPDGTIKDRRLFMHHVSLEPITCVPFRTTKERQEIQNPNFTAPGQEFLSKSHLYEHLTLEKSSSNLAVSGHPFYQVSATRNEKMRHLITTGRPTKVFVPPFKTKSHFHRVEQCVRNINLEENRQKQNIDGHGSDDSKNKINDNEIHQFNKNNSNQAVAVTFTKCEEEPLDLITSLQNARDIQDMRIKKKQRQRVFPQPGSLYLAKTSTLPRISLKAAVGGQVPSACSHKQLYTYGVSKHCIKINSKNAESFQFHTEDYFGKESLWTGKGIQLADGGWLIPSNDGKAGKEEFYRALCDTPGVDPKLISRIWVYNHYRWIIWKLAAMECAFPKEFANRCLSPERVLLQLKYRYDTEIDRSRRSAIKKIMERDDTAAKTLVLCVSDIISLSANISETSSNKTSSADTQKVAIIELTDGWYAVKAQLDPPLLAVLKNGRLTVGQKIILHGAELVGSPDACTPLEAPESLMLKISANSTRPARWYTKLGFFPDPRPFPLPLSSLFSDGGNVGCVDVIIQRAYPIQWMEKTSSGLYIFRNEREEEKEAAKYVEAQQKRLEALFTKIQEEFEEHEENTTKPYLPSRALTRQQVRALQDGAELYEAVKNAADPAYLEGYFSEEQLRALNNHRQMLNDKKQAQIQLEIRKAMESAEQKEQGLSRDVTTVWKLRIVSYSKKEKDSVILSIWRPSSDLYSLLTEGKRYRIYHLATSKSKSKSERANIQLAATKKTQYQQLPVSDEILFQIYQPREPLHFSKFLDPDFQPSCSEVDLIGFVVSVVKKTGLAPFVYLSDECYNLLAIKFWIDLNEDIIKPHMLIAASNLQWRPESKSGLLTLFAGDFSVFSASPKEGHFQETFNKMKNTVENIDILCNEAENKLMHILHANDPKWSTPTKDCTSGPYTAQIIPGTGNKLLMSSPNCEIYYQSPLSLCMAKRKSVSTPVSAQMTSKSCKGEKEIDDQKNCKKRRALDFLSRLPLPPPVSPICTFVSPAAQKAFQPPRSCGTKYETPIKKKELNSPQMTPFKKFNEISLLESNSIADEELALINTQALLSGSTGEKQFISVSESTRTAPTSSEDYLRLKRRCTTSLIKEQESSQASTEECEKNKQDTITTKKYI

gapped lambda DNA (gDNA), ssDNA gap
binding signal (fold nucleation rate vs RAD51 alone) ([1]; 5 nM BRCA2-eGFP, 25 nM RAD51, 2 mM ATP, no RPA, biotinylated hairpin end caps): 2.7
binding signal (s (RAD51 cluster dwell time)) ([1]; with BRCA2-eGFP, biotinylated hairpin end caps): 102
binding signal (nuclei knt-1 min-1 (nucleation rate)) ([2]; 1.25 nM RPA, 2 mM ATP): 0.003
binding signal (nuclei knt-1 min-1 (nucleation rate)) ([2]; 25 nM RAD51, 2 mM ATP, no RPA): 0.277
binding signal (s (cluster dwell time)) ([2]; no BRCA2): 27.2

lambda dsDNA (including dsDNA arms of gDNA)
binding signal (um2 s-1 (1D diffusion coefficient)) ([1]; sliding on dsDNA, biotinylated ends): 0.04

B1
binding result [3]: binds
binding result [4]: binds
binding result [5]: binds

B2: 167mer 3' tailed DNA (mixed)
DNA 1: CTGCTTTATCAAGATAATTTTTCGACTCATCAGAAATATCCGTTTCCTATATTTATTCCTATTATGTTTTATTCATTTACTTATTCTTTATGTTCATTTTTTATATCCTTTACTTTATTTTCTCTGTTTATTCATTTACTTATTTTGTATTATCCTTATCTTATTTA
DNA 2: CGGATATTTCTGATGAGTCGAAAAATTATCTTGATAAAGCAG
binding result (BRCA2-eGFP): binds

B3: BRCA2-C (residues 966-1596, 2477-3194, 3265-3330)-eGFP (domain or fragment, human, UniProt P51587 966-1596, looked up)
chain: TLGQDLKSDISLNIDKIPEKNNDYMNKWAGLLGPISNHSFGGSFRTASNKEIKLSEHNIKKSKMFFKDIEEQYPTSLACVEIVNTLALDNQKKLSKPQSINTVSAHLQSSVVVSDCKNSHITPQMLFSKQDFNSNHNLTPSQKAEITELSTILEESGSQFEFTQFRKPSYILQKSTFEVPENQMTILKTTSEECRDADLHVIMNAPSIGQVDSSKQFEGTVEIKRKFAGLLKNDCNKSASGYLTDENEVGFRGFYSAHGTKLNVSTEALQKAVKLFSDIENISEETSAEVHPISLSSSKCHDSVVSMFKIENHNDKTVSEKNNKCQLILQNNIEMTTGTFVEEITENYKRNTENEDNKYTAASRNSHNLEFDGSDSSKNDTVCIHKDETDLLFTDQHNICLKLSGQFMKEGNTQIKEDLSDLTFLEVAKAQEACHGNTSNKEQLTATKTEQNIKDFETSDTFFQTASGKNISVAKESFNKIVNFFDQKPEELHNFSLNSELHSDIRKNKMDILSYEETDIVKHKILKESVPVGTGNQLVTFQGQPERDEKIKEPTLLGFHTASGKKVKIAKESLDKVKNLFDEKEQGTSEITSFSHQWAKTLKYREACKDLELACETIEITAAPKCKEMQNPLDLITSLQNARDIQDMRIKKKQRQRVFPQPGSLYLAKTSTLPRISLKAAVGGQVPSACSHKQLYTYGVSKHCIKINSKNAESFQFHTEDYFGKESLWTGKGIQLADGGWLIPSNDGKAGKEEFYRALCDTPGVDPKLISRIWVYNHYRWIIWKLAAMECAFPKEFANRCLSPERVLLQLKYRYDTEIDRSRRSAIKKIMERDDTAAKTLVLCVSDIISLSANISETSSNKTSSADTQKVAIIELTDGWYAVKAQLDPPLLAVLKNGRLTVGQKIILHGAELVGSPDACTPLEAPESLMLKISANSTRPARWYTKLGFFPDPRPFPLPLSSLFSDGGNVGCVDVIIQRAYPIQWMEKTSSGLYIFRNEREEEKEAAKYVEAQQKRLEALFTKIQEEFEEHEENTTKPYLPSRALTRQQVRALQDGAELYEAVKNAADPAYLEGYFSEEQLRALNNHRQMLNDKKQAQIQLEIRKAMESAEQKEQGLSRDVTTVWKLRIVSYSKKEKDSVILSIWRPSSDLYSLLTEGKRYRIYHLATSKSKSKSERANIQLAATKKTQYQQLPVSDEILFQIYQPREPLHFSKFLDPDFQPSCSEVDLIGFVVSVVKKTGLAPFVYLSDECYNLLAIKFWIDLNEDIIKPHMLIAASNLQWRPESKSGLLTLFAGDFSVFSASPKEGHFQETFNKMKNTVENIDILCNEAENKLMHILHANDPKWSTPCKKRRALDFLSRLPLPPPVSPICTFVSPAAQKAFQPPRSCGTKYETPIKKKELNSPQMTPFKKFNE
notes: BRCA2, human, residues 966-1596 (BRC repeats 1-4); BRCA2, human, residues 2477-3194 (C-DBD); BRCA2, human, residues 3265-3330 (TR2); No linkers between the three stretches are stated; source: High Five insect cells, baculovirus (pFBDM-BRCA2-C, MultiBac), purified (StrepTrap, Heparin); not shown: eGFP, C-terminal, kept
binding result [6]: binds
